Data: article PMC3538076
Where “and” joins values, the source holds several entries; their conditions need not be identical. Identical values can stand only once. Like-named read-outs stand apart in the source and are kept apart here.

Key:
[1] = target: RbAp48–H3–H4 complex, labeled with Cy3 at Gln-125 on H3 (human | Xenopus laevis) (UniProt Q09028); assay: fluorescence polarisation
[2] = target: H3–H4 complex with H3 labeled with Cy3 at Gln-125 (H3 C110A) (Xenopus laevis) (UniProt P84233); assay: fluorescence polarisation
[3] = target: gH3–gH4 heterodimer (globular forms of histones H3 and H4) (Xenopus laevis) (UniProt P84233); assay: SEC
[4] = target: H3–H4 complex with H3 labeled with Cy3 at Gln-125 (H3 C110A) (Xenopus laevis) (UniProt P84233); assay: fluorescence polarisation; remark: listed apart in the source
[5] = target: H3–H4 complex with H3 labeled with Cy3 at Leu-65 (H3 C110A) (Xenopus laevis) (UniProt P84233); assay: fluorescence polarisation

| Kd [1] | Kd [2] [nM] | stoichiometry N (ASF1^1-159 : gH3–gH4) [3] | Kd [4] [nM] | Kd [5] [nM] | Substance |
| --- | --- | --- | --- | --- | --- |
| 7.1 nM and 3 nM and 6.8 nM | 0.3 | 1 | 0.27 |  | human ASF1^1-159 (anti-silencing function protein 1, residues 1-159) (from UniProt Q9Y294 1-159) (domain or fragment) |
|  |  |  |  | 0.61 | human retinoblastoma-associated protein RbAp48 (from UniProt Q09028 1-425) (natural protein) |
